Measurements published in the nanobody polyreactivity screen of Harvey et al. (2022).

Test: yeast display, Sf9 membrane polyspecificity reagent, FACS + sequencing; frameworks hold sequencing errors
How it was run: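 Using colony PCR, genes from sorted yeast display clones were amplified, then sequenced on MiSeq at 2 × 250 and filtered by CDR length. The clones had been stained with 10% biotinylated, detergent-solubilized Sf9 membrane reagent for 1 hour at 4 °C and sorted by FACS into low and high (top ~1%) gates on anti-HA and streptavidin fluorescence. Polyreactivity labels come from the gate of origin.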

Sequence | polyreactivity (PSR sort gate)
QVQLVESGGGLDQAGGSLPLSCAASGSIFYVYTMGTYRQAPGKERELVAAISFRSGSTYYADSVKGRFTISRDNAKNTVYLPMNSLKPEDTAVYYCAKPIPRGRNQLFNYWGQGTEVTVSS | high polyreactivity
QVHLVESGGGLVHAGGSLRLSCAASGFTLAWNAMGWYRQAPGKETELVATISRYGSSTSYADSVKGRFTISRDNSKNTVYLQMNSLKPEDTAVYYCAADRYTFRMDYWGQGTQVTVSS | high polyreactivity
QVQLEESGGGLVQAGGSLRLSCAASGRTFKYYAMGWYIQAPGKERELVAAISWSGGDTYYADSVKGRFTISRDNAKNTVYLQMNSLKQEDTAVYYCAKYPWYRYPSYEYWGQGTQVTVSS | high polyreactivity
QVQLVESGGGLVQAGGSLRLSCAASGSIFPVYTMGWYRQAPWKERELVAAITKTGGSTYYADSVKGRFTISRDNAKNTVYLQMNILIPEDTAVYYCAKPATYYELDYWGQGTQVNVSS | low polyreactivity
QVQLVESGGGLVQEGCSLRLSCAPSGIIFGVNAMGLYRQAPAKERELVAVITWSGGSTYYADSVKGRFTISRDNAKNTVYLQMNSLKPEDTAVYYCNADSSASTIDRQGEYYYLGQGTQVTVSS | low polyreactivity
QGQLVESGGALVQAGGSLRISCAASGRTISQNSMGLYRPAPGKERELVAAIRRGGSTNYADSVKGRFTISRDNAKNTVFLQMNSLKQEDSAFYYCAGDLRRNGWGFDYWGQGTQVTVSS | high polyreactivity
QVQLVESGGGLVQAGGSLRLSCAASGSTFYTYTMGWYRQAPGKERELVAAISSSGGDTYYADSVKGRFTISRDNAKNTVYLQMNSLKPEDTAVYYCAALGAFPSLEFDYWGQGTQVTVSS | low polyreactivity
QVQLVESGGGLVQAGGSLRLSCAASGFIFADYDMGWYRQAPGKERELVAAISWSGGTTYYADSVKGRFTISRDNAKNTVYLQMNSLKPEDTAVYYCAAYWWAVYSVVTGARYDYWGQGTQVTVSS | high polyreactivity
QVQLVESGGGLVQAGGILRLSCAASGFIFALNAMGWYRQAPGKERELVATIDSTSGSTYYADSVKGRFTISRDNAKNTVYLQMNSLKPEDTAVYYCAVVHAQSAPMDYWGQGTQVTVSS | low polyreactivity
QVQLVESAGGLVQAGGSLRLSCAASGSILTSYAMGWYRQAPGKERELVAAINGSGGSTFYADSVKGRFTISRDNAKNTVYLQMNSLKPEDTAVYYCNTGGPRGTTYDYWGQGTQVTVSS | low polyreactivity
QVQLVESGGGLVQAGGSLRLSCAASGSTFNSYTMGWYRPAPGKERELVAAISWRGTSTYYADSVKGRFTISRDNAKNTVYLQMNSLKPEDTAVFYCAAAGRYRVLTGLVSSWKYWGQGTLVTVSS | high polyreactivity
QVQLVESGGGLVQAGGSLRLSCAASGRNFKPNVMGWYRQAPGKERELVAAISWSGGASTYYADSVKGRFTISRDNAKNTVYLQMNSLKREDTAVYYCNAAKRNRYDYWGQGTQVTVSS | low polyreactivity
QVQLVESGGGLVQAGGSLRLSCAASGNTFSRYAMGWYRQAPGKERELVAAISYSTGSTRYADSVKGRFTISRDNAKNTVYLQMNSLKPEDTAVYYCAARAKSRGYWGQGTQVTVSS | high polyreactivity
QVQLVESGGGLVQAGGSLRLSCAASGRTFGWYAMGWYRQAPGKERELVATITRGGSTYYADSVKGRFTISRDNAKNTVYLQMNSLKPEDTAVYYCNARRYLWLRRYDYWGQGTQVTVSS | high polyreactivity
QVQLVESGGGLVQAGGSLRLSCAASGSIFYLNAMGWYRPAPGKERELVAAIRWSGGSTRYADSVKGRFTISRDNAKITVYLQLNSLKPEDTAVYSCAADTYVYTLGRYYYWGQGTQVTVSS | high polyreactivity
QVQLQGSGGGLVQAGGSLRLSCAASGNIFDADIKGWYRQAPGKEIELVASITDGGSTNYADSVKGRFTISRDNAKNTVYLQMYSLKHEDTAVYYCAAIAYPDIPTYFDYDSDCFYWSQGTQVTVSS | high polyreactivity
QVQLVESGGGLVQAGGSLRLSCAASGLIFHKNAMGWYRQAPGKERELVATITSGGNTNYADSVKGRFTISRDNAKNTVYLQMNSLKPEDTAVYYCAKDTHLLNEHSGTSREYDYWGQGTQVTVSS | low polyreactivity
QVQLVESGGGLVQAGGSIRFSCAASGRIFAHYAMGWYRPAPGKERELVAAISSSGTRTYYADSVKGRFTISRDNAKNTVYLQMNSLKPEDTAVFYCAKDSYHTVWGGYWGQGTQVTVSS | high polyreactivity
QVQLVDSGGGLVQAGGSLRLSCAASGSIFYYNAMGWYRPAPGKERELVAAITSSGGSTYYADSVKGRFTISRDNAKNTVYLQMNSLKPEDTAVYYCYAGATALRYRPYSSAYDYWGQGTQVTVSS | low polyreactivity
QVQLVESGGGLVQAGGILRLSCAASGSIIYVNAMGWYRQAPGKERELVAAISVRGGRTYYADSVKGRFTISRDNAKNSVYLQMISLKPEDTAVYDCAAGWYYYARPRVYNAREYYYWGQGTQVNVSS | high polyreactivity
QVQLVESGGGLVQAGGSLRLSCAASGRTFTVYAMGWYRQAPGKERELVAAISSGGITYYADSVKGRFTISRDNAKNTVYLQMNSLKPEDTAVYYCNTKSGKARYEFGYWGQGTQVTVSS | low polyreactivity
QVQLVESGGGLVQAGGSLRLSCAASGSTFQWNTMGWYRQAPGKERELVARITGGGGSTYYADSVKGRFTISRDNAKNTVYLQMNSLKPEDTAVYYCNAAIFGRYEYWGQGTQVTVSS | low polyreactivity

Sequence | polyreactivity (PSR sort gate)
QVQLVDSGGGLVQAGGSLRLSCAASGSNFGTYAMGWYRQAPGKERELVAAITTNGVSTYYADSVKGRFTISRDNAKNTVYLQMNSLKPEDTAVYYCAAPIQAWVRHLADIRYDYWGQGTQVTVSS | low polyreactivity
QVQLVESGGGLVQAGGSLRLSCAASGRTFDYYAMGWYRQAPRKERELVAAISSGGSTNYADSVKGRFTISRDNAKNTVYLQMNSLKPEATAVYYCAVSGIDDVKYDYWGQGTQVTVSS | low polyreactivity
QVQLVESGGGLVQAGGSLRLSCAASGSTFNANAMGWYRQAPGKERELVAAITAIGGSTYYADSVTGRFTISRDNAKNTVYLQMNSLKPEDTAVYYCAADFSYVYYLYDYWGQGTQVTVSS | low polyreactivity
QVQLVESGGGLVQAGGSLRLSCAASGFTFDSNAMGWYRQAPGKERELVAAISKRGGSTYYADSVKGRFTISRDNAKNTVYLQMNRLKPEDTAVYYCAADNYNSGGTRHMYYWGQGSQVTVSS | high polyreactivity
QVQLVESGGGLVQAGGSLRLSCAASGRTFRGYVMGWYRQAPGKERELVAAISKSGGSTYYADSVKGRFTISRDNAKNTVYLQMNSLKPEDTAVYYCSKNYRYSVFYDGFDYWGQGTQVTVSS | low polyreactivity
QVQLVESGGGLVQAGGSLRLSCAASGRIFAGYVMGWYRQAPGKERELVAAISWRGGRTYYADSVKGRFTISRDNAKNTVYLQMNSLKPEDTAVYYCNAPYAVGYPADDYWGQGTQVTVSS | high polyreactivity
QVQLVESGGGLVQAGGSLRLSCAASGSIFAWYVMGWYRQAPGKERELVAGIDTSGGSTFYADSVKGRFTISRDNAKNTVYLQMNSLKPEDTAVYYCAADTWFRGPWEFDYWGQGTQVTVSS | low polyreactivity
QVQLVESGGGLVQPGGSLRLSCAASGRNSTYTMGWYRQAPGKERELVATISTDASTNYADSVKGRFTISRDNAKNTVYLQMNSLKPEDTAVYYCAAVIVNQDYDYWGQGTQVTVSS | low polyreactivity
QVQLVESGGGLVQAGGSLRFSCAASGRTFNQNAMGWYRQAPGKERELVAAITSRGGSTFYADSVKGRFTISRDNAKNTVYLQMNSLKPEDTAVYYCNAKSWRYYTMGYWGQGTQVTVSS | high polyreactivity
QVHLVESGGGLVQAGGSLRLSCAASGSLSVRNVMGWYSQAPGKERELVATIRRSGGSTSYADSVKGRFTISRDNSKNSVYLQMNSLKPEDTAVYYCAAVVYTTYRRYDYWGQGTQVNVSS | low polyreactivity
QVQLVESGGGLVQAGGSLRLSCAASGRTIYRYGMGWYRQAPGKERELVADITWRGDSTYYADSVKGRFTISRDNAKNTVYLQMNCLKPEDTAVYYCATRPRGYRWGKLYDYWGQGTQVTVSS | high polyreactivity
QVQLVESGGGLVQAGGSLRLTCAASGSIFCAYTMGWSRQAPGKECDLVAAISASGGSTYYADSVKGRFTISRDNAKNTVYLQMNSLNPDDTAVYYCAAVYDLGYYGPIWAIVLDDYWGQGTQVTVSS | low polyreactivity
QDQLVESGGGLVQAGGSLRLTCAASGFIFDRNTMGLYRQATGNDTELVAAISRSGGSTYYSDSVNGRFTISRDNAKNTVYLQMNSMKPEDTAVYNCGALYYYRNRSYYYWGQGTHVTVSS | high polyreactivity
QDQLVESGGGLVQAGGSLRLSCAASGIIFDDNTLGWYRQAPGKERELVAAISSSGGSTYYADSVKGRFSISRDNAKNTVYLQMNSLKPEDTAVYYCAAAVYYTYPYIVYRNYPEFDYWGQGTQVTVSS | low polyreactivity
QVQLVESGGGLVQAGGSLRLSCAASGSTFYYYAMGWYRQAPGKERELVAAINYNGGSTHYADSVKGRFTISRDNAKNTVYFQMNSLKPEDTAVYYCAAKYRLSYTHGYWGQGTQVTVSS | low polyreactivity
QVQLVESGGGLVQAGGSLRLSCAASGSIFRWNAMGWSRQAPGKERELVAAITWDGGRTYYADSVKGRFTISRDNAKNTVYLQMNSLKPEDTAVYYCNADNARGRSGVRRYYWGQGTQVTVSS | high polyreactivity
QVQLVESGGGLVQAGGSLRISCAASGITFRRYGMGWYRQAPGKERELVATITSSVGSRTYYADSVKGRFTISRDNAKNTVYLQMNSLKPEDTAVYYCAADHRVYDSEYWGQGTQVTVSS | low polyreactivity
QVQLVESGGGLVQAGGSLRLSCAASGSTFKYYAMGWYRQAPAKERELVAAISARTGSTYYADSVKGRFTISRDNAKNTVYLQMNRLKPEDTAVYYCNKLTWRGEVDYWGQGTQVTVSS | high polyreactivity
QVQLVESGGGLVQAGGSLRLSCAASGNICITYAMGWYRQAPGKEREFVAAISRRRGRTYYADSVKARFTISRDKAKNTVYLQMNSLKPVDTAVYYCAADPATSVYGGLNYWGQVTQVTVSS | high polyreactivity
QVKLVESGGCLVQSGGSLRLSCADYRSIFWNNSMGWYRQATGKEWELGAGISSAGSTNYSDSVKGRFTISRDNAKNTVYLQMNSLKPEDTAVYYCAAEQYRYGIRRRHYDYWGQGTQVTLSS | low polyreactivity
QVQLVESGGGLVQAGGSLRLSCAASGSILDGYVMGWYRQAPGKDRELVAAISTNSDRTYYADSVKGRFTISRDNAKNTVDLQMNSLKPEDTAVYYCNARKLRRAGFPYDYWGQGTQVTVSS | high polyreactivity
